For 34 substances, Relative affinity (ratio of ELISA signal to cy(LLFFF)) and EC50 results are on record in US20210380640A1.

Read-outs that look alike come from different tables or passages of the source.

Assay [1] has as its target full-length recombinant MrkA protein with an N-terminal 6xHis-SUMO-tag (MyBiosource, MBS1248970) (Klebsiella pneumoniae) (UniProt P12267). The assay is described as follows: sandwich ELISA 5, PCC immobilised, MrkA 25 nM; reference cy(LLFFF). (In general: In an ELISA, binding on a coated surface is turned into a signal by an enzyme label.)
The target of assay [2] is SARS-CoV-2 spike protein (SARS-CoV-2) (UniProt P0DTC2).
The target of assay [3] is full-length recombinant MrkA protein with an N-terminal 6xHis-SUMO-tag (MyBiosource, MBS1248970) (Klebsiella pneumoniae) (UniProt P12267). The assay is described as follows: sandwich ELISA 2, PCC immobilised, MrkA 25 nM; reference cy(LLFFF).
For assay [4], the target named is SARS-CoV-2 spike protein (SARS-CoV-2) (UniProt P0DTC2). This is another data set of the same source.
The target in assay [5] is full-length recombinant MrkA protein with an N-terminal 6xHis-SUMO-tag (MyBiosource, MBS1248970) (Klebsiella pneumoniae) (UniProt P12267). The assay is described as follows: sandwich ELISA 6, PCC immobilised, MrkA 25 nM; reference cy(LLFFF).
The target is the same in assay [6]. The assay is described as follows: ELISA, PCC immobilised, full-length recombinant MrkA.
Assay [7] has the same target. The assay is described as follows: sandwich ELISA 1, PCC immobilised, [MrkA] N/A; the reference itself.
Assay [8] shares this target. In words: sandwich ELISA 2, PCC immobilised, MrkA 25 nM; the reference itself.
Assay [9] shares this target. The assay is described as follows: sandwich ELISA 3, PCC immobilised, MrkA 50 nM; the reference itself.
For assay [10] the target is unchanged. The assay is described as follows: sandwich ELISA 5, PCC immobilised, MrkA 25 nM; the reference itself.
Assay [11] has the same target. The assay is described as follows: sandwich ELISA 6, PCC immobilised, MrkA 25 nM; the reference itself.
The target is the same in assay [12]. The assay is described as follows: sandwich ELISA 4, PCC immobilised, MrkA 100 nM; the reference itself.
Assay [13] shares this target. The assay is described as follows: sandwich ELISA, biotinylated PCC immobilised, His-SUMO-MrkA titrated (FIG. 3A).
Assay [14] shares this target. The assay is described as follows: sandwich ELISA 4, PCC immobilised, MrkA 100 nM; reference cy(LLFFF).
Assay [15] has the same target. The assay is described as follows: sandwich ELISA 3, PCC immobilised, MrkA 50 nM; reference cy(LLFFF).

On to cy(LLFFF)+R3 (peptide), for which the Relative affinity (ratio of ELISA signal to cy(LLFFF)) in assay [1] turned out to be 0.9.

As a reminder, the EC50 is the concentration at which the effect is half-maximal. Regarding ydrsd (peptide), in assay [2], the EC50 was found to be 4.2 nM.

In the case of cy(ALFFF) (peptide), the Relative affinity (ratio of ELISA signal to cy(LLFFF)) in [3] is 0.53.

As for ykdld (peptide), in [4], the EC50 was found to be 4 nM.

Take cy(LLFFF)+R9 (peptide): the Relative affinity (ratio of ELISA signal to cy(LLFFF)) in assay [1] turned out to be 0.58.

In [4], dynGp (peptide) returned an EC50 of 2.9 nM.

In assay [4], senfd (peptide) returned an EC50 of 3.8 nM.

In assay [4], avtr (peptide) displayed a concentration for a half-maximal effect (EC50) of 3.4 nM.

Turning to andkd (peptide), in assay [2], the half-maximal effective concentration (EC50) was 4.2 nM.

Turning to dyGvd (peptide), the concentration giving a half-maximal response (EC50) in assay [4] is 2.9 nM.

In turn, aakrG (peptide) returned an EC50 in assay [4] of 16.4 nM.

On to cy(HLFFF) (peptide), for which, in assay [5], the Relative affinity (ratio of ELISA signal to cy(LLFFF)) stood at 0.81.

Substance dpvtd (peptide) had a concentration for a half-maximal effect (EC50) in assay [2] of 4.1 nM.

In assay [2], G1Gld (peptide) yielded a concentration for a half-maximal effect (EC50) of 4.2 nM.

nkvyG (peptide) returned an EC50 in assay [4] of 4.4 nM.

The substance skevd (peptide) showed a half-maximal effective concentration (EC50) in assay [4] of 4.6 nM.

Regarding cy(LLFFF), biotinylated (peptide), the figures for the EC50 in assay [6] and in [13] were 230 nM and 50 nM, respectively. The Relative affinity (ratio of ELISA signal to cy(LLFFF)) in [7], in assay [8], in [9], in assay [10], in assay [11] and in assay [12] was 1 each time.

tGarn (peptide) yielded a half-maximal effective concentration (EC50) in assay [2] of 3.1 nM.

eprnn (peptide) showed a 50% effective concentration (EC50) in [4] of 11 nM.

Take cy(LLFAF) (peptide): the Relative affinity (ratio of ELISA signal to cy(LLFFF)) in [3] was determined as 0.1.

In assay [2], sdyre (peptide) showed an EC50 of 4.2 nM.

edlvk (peptide) showed an EC50 in assay [4] of 4.3 nM.

In assay [4], fdtta (peptide) returned an EC50 of 3.2 nM.

As for cy(LLAFF) (peptide), the Relative affinity (ratio of ELISA signal to cy(LLFFF)) in assay [3] is 0.59.

Take cy(TTFFF) (peptide): the Relative affinity (ratio of ELISA signal to cy(LLFFF)) in assay [14] was determined as 0.04.

Take cy(LLFFA) (peptide): the Relative affinity (ratio of ELISA signal to cy(LLFFF)) in assay [3] turned out to be 0.04.

As for cy(LAFFF) (peptide), in [3], the Relative affinity (ratio of ELISA signal to cy(LLFFF)) came to 0.26.

On to cy(AAFFF) (peptide), for which the Relative affinity (ratio of ELISA signal to cy(LLFFF)) in assay [15] was determined as 0.15.

With tsthG (peptide), the EC50 in [4] came out at 3.6 nM.

For cy(DLFFF) (peptide), the Relative affinity (ratio of ELISA signal to cy(LLFFF)) in [5] turned out to be 0.21.

As for cy(LLFFF)+R6 (peptide), the Relative affinity (ratio of ELISA signal to cy(LLFFF)) in [1] was 1.22.

Take skdfd (peptide): the EC50 in [4] was 3.2 nM.

GGarn (peptide) registered a half-maximal effective concentration (EC50) in assay [2] of 3.4 nM.

As to nnpdh (peptide), the EC50 in assay [2] was 3.8 nM.
